Measurements reported in US20230348573A1 (KEIO UNIVERSITY, published 2023).

What was measured:
[1] = molecular target: T1, full-length spike protein of SARS-CoV-2 (Wuhan strain) (SARS-CoV-2 (Wuhan strain), UniProt P0DTC2 14-1273); test: ACE2 competition, spike on 293T cells, antibody 4 µg/mL
T1 construct: whole, on cells; Expressed in 293T cells

[2] = molecular target: T2, RBD derived from SARS-CoV-2 (Wuhan strain) (SARS-CoV-2 (Wuhan strain), UniProt P0DTC2 319-541); test: RBD beads, antibody 0.25 µg/mL, then labelled ACE2, flow cytometry
T2 construct: domain: RBD

[3] = molecular target: T2, RBD derived from SARS-CoV-2 (Wuhan …); test: RBD beads, antibody 4 µg/mL, then labelled ACE2, flow cytometry
[4] = molecular target: T1, full-length spike protein of SARS-CoV-2 …; test: ACE2 competition, 293T cells, antibody 4 µg/mL
[5] = molecular target: T2, RBD derived from SARS-CoV-2 (Wuhan …); test: RBD beads, antibody 1 µg/mL, then labelled ACE2, flow cytometry
[6] = molecular target: spike protein of SARS-CoV-2 (Wuhan strain) on pseudovirus (SARS-CoV-2 (Wuhan strain), UniProt P0DTC2 14-1254); test: cell-based or functional assay
[7] = molecular target: T2, RBD derived from SARS-CoV-2 (Wuhan …); test: BLI (Octet), RBD of the Wuhan strain

| Binder | binding amount (%) of ACE2 protein [1] [%] | fluorescence of ACE2 protein [2] | fluorescence of ACE2 protein [3] | ACE2 binding (no antibody = 100) [4] | fluorescence of ACE2 protein [5] | IC50 of pseudovirus infection (luciferase) [6] [ng/mL] | Kd [7] [nM] |
| --- | --- | --- | --- | --- | --- | --- | --- |
| Ab287 (antibody, V domains shown) VH: QVQLVQSGAEVKKPGSSVKVSCKASGDTFSSYAISWVRQAPGQGLEWMGRIILIFGVANYAQKFQGRVTITADKSTSTAYMELSSLRSEDTAVYYCARGGFYYDSSGYHLDYWGQGTLVTVSS VL: EIVLTQSPGTLSLSPGERATLSCRPSQSVSSSYLAWYQQRPGQAPRLLIYGASSRATGIPDRFSGSGSGTDFTLTISRLEPEDFAVYYCHQYGSSPRTFGQGTKVEIK | 1.5 | 689 | 32.6 | 0.5 | 105 | – | – |
| Ab496 (antibody, V domains shown) VH: EVQLVQSGPEVKKPGTSVKVSCKASGFIFTNSAVQWVRQARGQRLEWIGWIVVGSGNPNYAQKFQERVTITRDRSTSTAYMELSSLTSEDTAVYYCAAFPYYYDNSGSGPWGQGTLVTVSS VL: DIQLTQSPSSLSASVGDRVTITCQASQDIRNNLNWYQQIPGKAPKLLIYDASNLETGVPSRFSGSASGTDFTFTISSLQPEDVATYYCQQYANLPPFTFGPGTKVDIK | 1.8 | 2580 | 41.7 | 1.8 | 129 | 3.62 | – |
| Ab308 (antibody, V domains shown) VH: EVQLVQSGAEVKKPGSSVKVSCKASGGTFSSYAINWVRQAPGQGLEWMGRIIPMFGIANYAQKFQGRVTITANKSTSTAYMDLSSLRSEDTAVYYCARSQYYYDSSGYYFDYWGQGTLVTVSS VL: not shown | 3.5 | 1390 | 59 | 4.1 | 432 | – | 6.62 |
| Ab445 (antibody, V domains shown) VH: EVQLVESGGGVVQPGTSPRLSCAASGFTFSNSGMHWVRQAPGKGLEWVAVIWYDGSKKYYVDSVKGRFTISRDNSKNTLYLQMNSLRAEDTAVYYCARDGTVAVRGVMNPFFDYWGQGTLVTVSS VL: DIQLTQSPSSLSASVGDRVTITCQASQDISNYLNWYQQIPGKAPKLLIYDASNLETGVPSRFSGSGSGTDFTFTISSLQPEDIATYYCQQYDNLPYTFGQGTKLEIK | 0.4 | 2200 | 142 | 0.4 | 326 | – | 0.0593 |
| Ab336 (antibody, V domains shown) VH: QVQLQQSGPGLVKPSETLSLTCTVSGGSISSYYWTWIRQPPGKGLEWIAYISYSGSTNYNPSLRSRVTISVDTSKNQFSLKLSSVTAADTAVYYCARDYYYDNSGYPDSYYGMDVWGQGTTVTVSS VL: DIQLTQSPSTLSASVGDRVTITCRASQRISSWLAWYQQKPGKAPKLLIYKASTLQSGVPSRFSGSGSGTEFTLTISSLQPDDFATYYCQQYNSFSWTFGQGTKVEIK | 5.3 | 1110 | 106 | 1 | 402 | – | 2.35 |
| Ab188 (antibody, V domains shown) VH: EVQLVESGGGLVQPGGSLRLSCAASGFTFINYKMNWVRQAPGKGLEWVSYISSGSDAIYYADSVKGRFTISRDNAKNSLYLQMNSLRDEDTALYYCARGGGYNYGECMDVWGQGTTVTVSS VL: not shown | 1.1 | 1570 | 148 | 2.1 | – | 119 | – |
| Ab159 (antibody, V domains shown) VH: QVQLVESGGGLVKPGGSLRLSCAASGFTFNNAWMSWVRQAPGKGLEWVGRIKSKTDGGTTDYAAPVKGRFTFSRDDSKNTLYLQMSSLKTEDTALYYCTTADYDILTGTPASPYWGQGTLVTVSS VL: DIQMTQSPSSLSASVGDRVTITCRASQSITNYLNWYQQKPGKAPKFLIYAASSLQGGVPSRFRGSGSGTDFTLTISSLQPEDFATYYCQQTYSTLWTFGQGTKVEIK | 0.5 | 486 | 78.3 | – | 114 | 8.52 | 1.24 |
